Test results from US20260049138A1 (Chugai, published 2026).

molecular target: T1, CD3ε homodimer protein (human, UniProt P07766 23-126, limits assumed, sulfo-tag or biotin label in the ECL assays; amine-coupled to the chip in SPR); assay: SPR Biacore T200; CD3ε homodimer on CM4 chip;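 further: Single-residue variant antibodies injected as analyte over CD3ε homodimer immobilized by amine coupling, run at 25 °C in HBS-EP+ buffer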
T1 construct: also called human CD3ε homodimer protein; CD3 (CD3ε)
T1 sequence (P07766 23-126 limits assumed): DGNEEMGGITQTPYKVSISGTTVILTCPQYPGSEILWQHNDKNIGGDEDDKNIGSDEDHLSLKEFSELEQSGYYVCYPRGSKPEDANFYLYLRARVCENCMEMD

| Binder | ratio of amounts bound Z=Y/X (altered form / CE115HA000) |
| --- | --- |
| CE115HA000 Y100W one-arm antibody (antibody, human IgG1, kappa, L234A L235A, N297A, name in Kabat numbering) heavy: QVQLVESGGGVVQPGRSLRLSCAASGFTFSNAWMHWVRQAPGKGLEWVAQIKAKSNNYATYYAESVKGRFTISRDDSKNSLYLQMNSLKTEDTAVYYCRYVHYGAWYGVDAWGQGTTVTVSSASTKGPSVFPLAPSSKSTSGGTAALGCLVKDYFPEPVTVSWNSGALTSGVHTFPAVLQSSGLYSLSSVVTVPSSSLGTQTYICNVNHKPSNTKVDKKVEPKSCDKTHTCPPCPAPEAAGGPSVFLFPPKPKDTLMISRTPEVTCVVVDVSHEDPEVKFNWYVDGVEVHNAKTKPREEQYASTYRVVSVLTVLHQDWLNGKEYKCKVSNKALPAPIEKTISKAKGQPREPQVYTLPPSRCELTKNQVSLSCAVKGFYPSDIAVEWESNGQPENNYKTTPPVLDSDGSFFLVSKLTVDKSRWQQGNVFSCSVMHEALHNHYTQKSLSLSPDYKDDDDK EPKSSDKTHTCPPCPAPELLGGPSVFLFPPKPKDTLMISRTPEVTCVVVDVSHEDPEVKFNWYVDGVEVHNAKTKPREEQYNSTYRVVSVLTVLHQDWLNGKEYKCKVSNKALPAPIEKTISKAKGQPREPQVCTLPPSRDELTKNQVSLWCLVKGFYPSDIAVEWESNGQPENNYKTTPPVLDSDGSFFLYSKLTVDKSRWQQGNVFSCSVMHEALHNRYTQKSLSLSP light: DIVMTQSPLSLPVTPGEPASISCRSSQSLVHSNRNTYLHWYQQKPGQAPRLLIYKVSNRFSGVPDRFSGSGSGTDFTLKISRVEAEDVGVYYCGQGTQVPYTFGQGTKLEIKRTVAAPSVFIFPPSDEQLKSGTASVVCLLNNFYPREAKVQWKVDNALQSGNSQESVTEQDSKDSTYSLSSTLTLSKADYEKHKVYACEVTHQGLSSPVTKSFNRGEC | 1.03 |
| CE115HA000 Y100aA one-arm antibody (antibody, human IgG1, kappa, L234A L235A, N297A, name in Kabat numbering) heavy: QVQLVESGGGVVQPGRSLRLSCAASGFTFSNAWMHWVRQAPGKGLEWVAQIKAKSNNYATYYAESVKGRFTISRDDSKNSLYLQMNSLKTEDTAVYYCRYVHYGAYAGVDAWGQGTTVTVSSASTKGPSVFPLAPSSKSTSGGTAALGCLVKDYFPEPVTVSWNSGALTSGVHTFPAVLQSSGLYSLSSVVTVPSSSLGTQTYICNVNHKPSNTKVDKKVEPKSCDKTHTCPPCPAPEAAGGPSVFLFPPKPKDTLMISRTPEVTCVVVDVSHEDPEVKFNWYVDGVEVHNAKTKPREEQYASTYRVVSVLTVLHQDWLNGKEYKCKVSNKALPAPIEKTISKAKGQPREPQVYTLPPSRCELTKNQVSLSCAVKGFYPSDIAVEWESNGQPENNYKTTPPVLDSDGSFFLVSKLTVDKSRWQQGNVFSCSVMHEALHNHYTQKSLSLSPDYKDDDDK EPKSSDKTHTCPPCPAPELLGGPSVFLFPPKPKDTLMISRTPEVTCVVVDVSHEDPEVKFNWYVDGVEVHNAKTKPREEQYNSTYRVVSVLTVLHQDWLNGKEYKCKVSNKALPAPIEKTISKAKGQPREPQVCTLPPSRDELTKNQVSLWCLVKGFYPSDIAVEWESNGQPENNYKTTPPVLDSDGSFFLYSKLTVDKSRWQQGNVFSCSVMHEALHNRYTQKSLSLSP light: DIVMTQSPLSLPVTPGEPASISCRSSQSLVHSNRNTYLHWYQQKPGQAPRLLIYKVSNRFSGVPDRFSGSGSGTDFTLKISRVEAEDVGVYYCGQGTQVPYTFGQGTKLEIKRTVAAPSVFIFPPSDEQLKSGTASVVCLLNNFYPREAKVQWKVDNALQSGNSQESVTEQDSKDSTYSLSSTLTLSKADYEKHKVYACEVTHQGLSSPVTKSFNRGEC | 0.62 |

Other lines, results leading:

| ratio of amounts bound Z=Y/X (altered form / CE115HA000) | Binder |
| --- | --- |
| 0.87 | CE115HA000 Y100aF one-arm antibody (antibody, human IgG1, kappa, L234A L235A, N297A, name in Kabat numbering) heavy: QVQLVESGGGVVQPGRSLRLSCAASGFTFSNAWMHWVRQAPGKGLEWVAQIKAKSNNYATYYAESVKGRFTISRDDSKNSLYLQMNSLKTEDTAVYYCRYVHYGAYFGVDAWGQGTTVTVSSASTKGPSVFPLAPSSKSTSGGTAALGCLVKDYFPEPVTVSWNSGALTSGVHTFPAVLQSSGLYSLSSVVTVPSSSLGTQTYICNVNHKPSNTKVDKKVEPKSCDKTHTCPPCPAPEAAGGPSVFLFPPKPKDTLMISRTPEVTCVVVDVSHEDPEVKFNWYVDGVEVHNAKTKPREEQYASTYRVVSVLTVLHQDWLNGKEYKCKVSNKALPAPIEKTISKAKGQPREPQVYTLPPSRCELTKNQVSLSCAVKGFYPSDIAVEWESNGQPENNYKTTPPVLDSDGSFFLVSKLTVDKSRWQQGNVFSCSVMHEALHNHYTQKSLSLSPDYKDDDDK EPKSSDKTHTCPPCPAPELLGGPSVFLFPPKPKDTLMISRTPEVTCVVVDVSHEDPEVKFNWYVDGVEVHNAKTKPREEQYNSTYRVVSVLTVLHQDWLNGKEYKCKVSNKALPAPIEKTISKAKGQPREPQVCTLPPSRDELTKNQVSLWCLVKGFYPSDIAVEWESNGQPENNYKTTPPVLDSDGSFFLYSKLTVDKSRWQQGNVFSCSVMHEALHNRYTQKSLSLSP light: DIVMTQSPLSLPVTPGEPASISCRSSQSLVHSNRNTYLHWYQQKPGQAPRLLIYKVSNRFSGVPDRFSGSGSGTDFTLKISRVEAEDVGVYYCGQGTQVPYTFGQGTKLEIKRTVAAPSVFIFPPSDEQLKSGTASVVCLLNNFYPREAKVQWKVDNALQSGNSQESVTEQDSKDSTYSLSSTLTLSKADYEKHKVYACEVTHQGLSSPVTKSFNRGEC |
| 0.31 | CE115HA000 Y100aD one-arm antibody (antibody, human IgG1, kappa, L234A L235A, N297A, name in Kabat numbering) heavy: QVQLVESGGGVVQPGRSLRLSCAASGFTFSNAWMHWVRQAPGKGLEWVAQIKAKSNNYATYYAESVKGRFTISRDDSKNSLYLQMNSLKTEDTAVYYCRYVHYGAYDGVDAWGQGTTVTVSSASTKGPSVFPLAPSSKSTSGGTAALGCLVKDYFPEPVTVSWNSGALTSGVHTFPAVLQSSGLYSLSSVVTVPSSSLGTQTYICNVNHKPSNTKVDKKVEPKSCDKTHTCPPCPAPEAAGGPSVFLFPPKPKDTLMISRTPEVTCVVVDVSHEDPEVKFNWYVDGVEVHNAKTKPREEQYASTYRVVSVLTVLHQDWLNGKEYKCKVSNKALPAPIEKTISKAKGQPREPQVYTLPPSRCELTKNQVSLSCAVKGFYPSDIAVEWESNGQPENNYKTTPPVLDSDGSFFLVSKLTVDKSRWQQGNVFSCSVMHEALHNHYTQKSLSLSPDYKDDDDK EPKSSDKTHTCPPCPAPELLGGPSVFLFPPKPKDTLMISRTPEVTCVVVDVSHEDPEVKFNWYVDGVEVHNAKTKPREEQYNSTYRVVSVLTVLHQDWLNGKEYKCKVSNKALPAPIEKTISKAKGQPREPQVCTLPPSRDELTKNQVSLWCLVKGFYPSDIAVEWESNGQPENNYKTTPPVLDSDGSFFLYSKLTVDKSRWQQGNVFSCSVMHEALHNRYTQKSLSLSP light: DIVMTQSPLSLPVTPGEPASISCRSSQSLVHSNRNTYLHWYQQKPGQAPRLLIYKVSNRFSGVPDRFSGSGSGTDFTLKISRVEAEDVGVYYCGQGTQVPYTFGQGTKLEIKRTVAAPSVFIFPPSDEQLKSGTASVVCLLNNFYPREAKVQWKVDNALQSGNSQESVTEQDSKDSTYSLSSTLTLSKADYEKHKVYACEVTHQGLSSPVTKSFNRGEC |
